Data from US20180244734A1.

Target: anti-BBP1 polyclonal antibody
Assay: competitive ELISA, free peptide against coated BBP1-biotin peptide for the anti-BBP1 polyclonal antibody

B1: BBP1 peptide (SEQ ID No. 7) (peptide)
peptide: HSYSTNSFSRTTNG
Binder B1 has a lowest level detected of 2.5 µg/mL.
